The labels stand for the following.
B1: Transient receptor potential cation channel subfamily M member 7 (Mus musculus), Q923J1 (parent)
chain: MSQKSWIESTLTKRECVYIIPSSKDPHRCLPGCQICQQLVRCFCGRLVKQHACFTASLAMKYSDVKLGEHFNQAIEEWSVEKHTEQSPTDAYGVINFQGGSHSYRAKYVRLSYDTKPEIILQLLLKEWQMELPKLVISVHGGMQKFELHPRIKQLLGKGLIKAAVTTGAWILTGGVNTGVAKHVGDALKEHASRSSRKICTIGIAPWGVIENRNDLVGRDVVAPYQTLLNPLSKLNVLNNLHSHFILVDDGTVGKYGAEVRLRRELEKTINQQRIHARIGQGVPVVALIFEGGPNVILTVLEYLQESPPVPVVVCEGTGRAADLLAYIHKQTEEGGNLPDAAEPDIISTIKKTFNFGQSEAVHLFQTMMECMKKKELITVFHIGSEDHQDIDVAILTALLKGTNASAFDQLILTLAWDRVDIAKNHVFVYGQQWLVGSLEQAMLDALVMDRVSFVKLLIENGVSMHKFLTIPRLEELYNTKQGPTNPMLFHLIRDVKQGNLPPGYKITLIDIGLVIEYLMGGTYRCTYTRKRFRLIYNSLGGNNRRSGRNTSSSTPQLRKSHETFGNRADKKEKMRHNHFIKTAQPYRPKMDASMEEGKKKRTKDEIVDIDDPETKRFPYPLNELLIWACLMKRQVMARFLWQHGEESMAKALVACKIYRSMAYEAKQSDLVDDTSEELKQYSNDFGQLAVELLEQSFRQDETMAMKLLTYELKNWSNSTCLKLAVSSRLRPFVAHTCTQMLLSDMWMGRLNMRKNSWYKVILSILVPPAILMLEYKTKAEMSHIPQSQDAHQMTMEDSENNFHNITEEIPMEVFKEVKILDSSDGKNEMEIHIKSKKLPITRKFYAFYHAPIVKFWFNTLAYLGFLMLYTFVVLVKMEQLPSVQEWIVIAYIFTYAIEKVREVFMSEAGKISQKIKVWFSDYFNVSDTIAIISFFVGFGLRFGAKWNYINAYDNHVFVAGRLIYCLNIIFWYVRLLDFLAVNQQAGPYVMMIGKMVANMFYIVVIMALVLLSFGVPRKAILYPHEEPSWSLAKDIVFHPYWMIFGEVYAYEIDVCANDSTLPTICGPGTWLTPFLQAVYLFVQYIIMVNLLIAFFNNVYLQVKAISNIVWKYQRYHFIMAYHEKPVLPPPLIILSHIVSLFCCVCKRRKKDKTSDGPKLFLTEEDQKKLHDFEEQCVEMYFDEKDDKFNSGSEERIRVTFERVEQMSIQIKEVGDRVNYIKRSLQSLDSQIGHLQDLSALTVDTLKTLTAQKASEASKVHNEITRELSISKHLAQNLIDDVPVRPLWKKPSAVNTLSSSLPQGDRESNNPFLCNIFMKDEKDPQYNLFGQDLPVIPQRKEFNIPEAGSSCGALFPSAVSPPELRQRRHGVEMLKIFNKNQKLGSSPNSSPHMSSPPTKFSVSTPSQPSCKSHLESTTKDQEPIFYKAAEGDNIEFGAFVGHRDSMDLQRFKETSNKIRELLSNDTPENTLKHVGAAGYSECCKTSTSLHSVQAESCSRRASTEDSPEVDSKAALLPDWLRDRPSNREMPSEGGTLNGLASPFKPVLDTNYYYSAVERNNLMRLSQSIPFVPVPPRGEPVTVYRLEESSPSILNNSMSSWSQLGLCAKIEFLSKEEMGGGLRRAVKVLCTWSEHDILKSGHLYIIKSFLPEVINTWSSIYKEDTVLHLCLREIQQQRAAQKLTFAFNQMKPKSIPYSPRFLEVFLLYCHSAGQWFAVEECMTGEFRKYNNNNGDEIIPTNTLEEIMLAFSHWTYEYTRGELLVLDLQGVGENLTDPSVIKAEEKRSCDMVFGPANLGEDAIKNFRAKHHCNSCCRKLKLPDLKRNDYTPDKIIFPQDESSDLNLQSGNSTKESEATNSVRLML

This assay covers variants of B1. The note with it: with myh9_mouse Myh9, Q8VDD5.
myh9_mouse Myh9, Q8VDD5, sequence (Q8VDD5 whole entry): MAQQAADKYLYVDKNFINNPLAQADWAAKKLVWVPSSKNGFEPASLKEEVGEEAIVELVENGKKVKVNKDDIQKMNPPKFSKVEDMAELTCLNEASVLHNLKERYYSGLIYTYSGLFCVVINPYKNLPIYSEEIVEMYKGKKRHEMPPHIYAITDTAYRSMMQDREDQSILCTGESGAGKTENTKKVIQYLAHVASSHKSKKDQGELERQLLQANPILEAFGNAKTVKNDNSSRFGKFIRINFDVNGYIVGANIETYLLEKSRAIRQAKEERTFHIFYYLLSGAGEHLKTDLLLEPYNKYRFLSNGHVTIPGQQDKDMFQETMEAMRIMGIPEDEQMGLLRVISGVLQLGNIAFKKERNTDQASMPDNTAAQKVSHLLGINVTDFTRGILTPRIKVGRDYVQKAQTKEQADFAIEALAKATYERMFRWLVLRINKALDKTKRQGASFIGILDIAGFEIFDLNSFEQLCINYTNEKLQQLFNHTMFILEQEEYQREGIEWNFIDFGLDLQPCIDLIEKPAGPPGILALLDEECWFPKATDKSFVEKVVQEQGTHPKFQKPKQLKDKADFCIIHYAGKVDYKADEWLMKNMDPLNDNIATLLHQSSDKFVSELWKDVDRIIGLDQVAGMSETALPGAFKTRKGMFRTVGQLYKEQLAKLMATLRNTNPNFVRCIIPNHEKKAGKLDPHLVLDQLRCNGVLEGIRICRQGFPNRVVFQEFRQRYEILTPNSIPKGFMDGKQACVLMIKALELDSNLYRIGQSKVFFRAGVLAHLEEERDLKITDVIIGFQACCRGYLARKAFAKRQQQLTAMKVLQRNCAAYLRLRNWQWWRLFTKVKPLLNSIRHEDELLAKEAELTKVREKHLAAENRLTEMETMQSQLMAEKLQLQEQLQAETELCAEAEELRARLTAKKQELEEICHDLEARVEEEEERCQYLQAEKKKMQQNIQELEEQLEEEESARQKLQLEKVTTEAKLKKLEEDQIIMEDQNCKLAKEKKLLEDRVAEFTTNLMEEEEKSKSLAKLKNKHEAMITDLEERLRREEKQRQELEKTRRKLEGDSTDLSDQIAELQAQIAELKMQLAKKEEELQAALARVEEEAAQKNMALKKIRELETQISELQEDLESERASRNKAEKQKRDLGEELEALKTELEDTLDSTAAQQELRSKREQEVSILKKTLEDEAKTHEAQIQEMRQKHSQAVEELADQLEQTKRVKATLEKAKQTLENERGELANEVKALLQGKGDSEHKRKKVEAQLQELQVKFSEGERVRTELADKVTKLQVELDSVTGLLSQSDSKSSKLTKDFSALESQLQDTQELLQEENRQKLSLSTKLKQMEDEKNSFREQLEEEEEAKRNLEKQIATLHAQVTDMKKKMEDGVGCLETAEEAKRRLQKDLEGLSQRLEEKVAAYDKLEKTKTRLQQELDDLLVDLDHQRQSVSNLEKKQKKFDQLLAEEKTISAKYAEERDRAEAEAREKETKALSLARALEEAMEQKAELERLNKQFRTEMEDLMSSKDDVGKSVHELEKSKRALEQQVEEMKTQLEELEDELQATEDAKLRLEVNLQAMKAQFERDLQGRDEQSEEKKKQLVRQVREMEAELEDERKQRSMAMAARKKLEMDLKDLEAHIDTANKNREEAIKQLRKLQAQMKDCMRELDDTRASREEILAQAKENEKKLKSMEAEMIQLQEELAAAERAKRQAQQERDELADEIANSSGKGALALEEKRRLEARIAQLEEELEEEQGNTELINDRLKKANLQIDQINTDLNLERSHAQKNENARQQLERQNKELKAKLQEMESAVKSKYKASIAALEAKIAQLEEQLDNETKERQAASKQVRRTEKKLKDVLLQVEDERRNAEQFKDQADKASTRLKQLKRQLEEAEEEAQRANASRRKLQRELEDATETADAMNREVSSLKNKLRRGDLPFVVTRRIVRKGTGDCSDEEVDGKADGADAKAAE
Turning to D1775A, the “effect of a mutation on the interaction” value is given as “decreasing interaction”.

These data come from IntAct's records for PubMed 16407977.
